Measurements reported in patent publication US20220145291A1.

Target: FasR on T-cells (Jurkat cells) (UniProt P25445)
Test: cell-based or functional assay

FasR on T-cells (Jurkat cells), sequence (P25445 26-335 limits assumed): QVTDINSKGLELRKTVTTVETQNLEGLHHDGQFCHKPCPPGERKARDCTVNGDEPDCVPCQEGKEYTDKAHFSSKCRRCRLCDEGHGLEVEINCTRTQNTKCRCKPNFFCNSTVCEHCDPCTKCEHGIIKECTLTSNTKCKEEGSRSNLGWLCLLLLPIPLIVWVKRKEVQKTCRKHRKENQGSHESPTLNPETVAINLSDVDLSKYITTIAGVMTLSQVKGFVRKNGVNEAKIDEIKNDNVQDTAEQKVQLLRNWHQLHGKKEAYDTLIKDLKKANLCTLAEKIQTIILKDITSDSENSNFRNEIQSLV
streptavidin-FasL, sequence (P22629 37-163): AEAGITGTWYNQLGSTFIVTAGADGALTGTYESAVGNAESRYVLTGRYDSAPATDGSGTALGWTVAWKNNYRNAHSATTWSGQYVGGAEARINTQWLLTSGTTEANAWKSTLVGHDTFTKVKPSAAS

apoptosis in Jurkat cells, flow cytometry (Annexin V); SA-FasL tethered on exosomes, 1 µg exosome protein: 17.5%
apoptosis in Jurkat cells, flow cytometry (Annexin V); SA-FasL tethered on exosomes, 20 µg exosome protein: 99.3%
Substance: streptavidin-FasL (from UniProt P22629 37-163) (ligand)
